This test addresses native human AXL on non-transfected human cell lines (A-431, A-549, HeLa, MDA-MB-231, NCI-H1299) (human) (UniProt P30530). As to the kind of experiment: cell-based or functional assay.

Sequence of native human AXL on non-transfected human cell lines (A-431, A-549, HeLa, MDA-MB-231, NCI-H1299) (human) (P30530 26-894 limits assumed): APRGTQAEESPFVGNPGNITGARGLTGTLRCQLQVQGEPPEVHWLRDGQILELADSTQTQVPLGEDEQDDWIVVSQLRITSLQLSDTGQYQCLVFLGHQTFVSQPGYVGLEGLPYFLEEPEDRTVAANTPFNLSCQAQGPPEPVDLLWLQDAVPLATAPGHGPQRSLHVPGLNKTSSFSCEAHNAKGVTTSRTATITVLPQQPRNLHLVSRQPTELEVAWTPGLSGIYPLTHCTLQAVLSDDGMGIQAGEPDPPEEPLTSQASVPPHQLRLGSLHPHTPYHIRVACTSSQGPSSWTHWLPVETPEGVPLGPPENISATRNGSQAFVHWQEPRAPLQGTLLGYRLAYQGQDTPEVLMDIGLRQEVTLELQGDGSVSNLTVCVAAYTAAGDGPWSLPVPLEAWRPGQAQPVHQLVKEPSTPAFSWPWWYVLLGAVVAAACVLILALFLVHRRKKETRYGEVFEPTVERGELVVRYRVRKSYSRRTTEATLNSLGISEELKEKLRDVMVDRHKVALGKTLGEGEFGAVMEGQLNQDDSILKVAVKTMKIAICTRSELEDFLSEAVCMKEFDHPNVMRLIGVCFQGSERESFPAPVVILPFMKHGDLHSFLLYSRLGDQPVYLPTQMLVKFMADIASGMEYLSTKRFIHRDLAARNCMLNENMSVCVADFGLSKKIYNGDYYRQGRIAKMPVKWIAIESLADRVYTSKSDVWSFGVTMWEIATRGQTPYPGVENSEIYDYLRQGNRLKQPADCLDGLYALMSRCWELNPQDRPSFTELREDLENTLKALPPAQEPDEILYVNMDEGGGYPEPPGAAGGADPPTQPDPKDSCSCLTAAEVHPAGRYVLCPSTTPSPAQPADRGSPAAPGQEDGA

Turning to isotype control (Example 5) (antibody), the AKT phosphorylation in H1299 cells without Gas6; APC-A Geometric mean; p-AKT APC + isotype control stood at 4380, the AKT phosphorylation in H1299 cells without Gas6; Median: APC-A; p-AKT APC + isotype control amounted to 4430, the ERK phosphorylation in H1299 cells without Gas6; APC-A Geometric mean; p-ERK A647 + isotype control came to 965 and the ERK phosphorylation in H1299 cells without Gas6; Median: APC-A; p-ERK A647 + isotype control is 274. Further, the Gas6 induced AKT phosphorylation in H1299 cells; APC-A Geometric mean; p-AKT APC + isotype control + Gas6 turned out to be 8380, the Gas6 induced AKT phosphorylation in H1299 cells; Median: APC-A; p-AKT APC + isotype control + Gas6 was 9120, the Gas6 induced ERK phosphorylation in H1299 cells; APC-A Geometric mean; p-ERK A647 + isotype control + Gas6 amounted to 1320 and the Gas6 induced ERK phosphorylation in H1299 cells; Median: APC-A; p-ERK A647 + isotype control + Gas6 came to 1020.

These data come from patent US20260042848A1.
